Our source for the Kd and binding signal (fold lower affinity than WT) values is paper PMC4433238.

Changes are numbered by the printed parent chain. pKd: −log10 of the molar value. Where only a bound is given, the exact number is not on record here.

What all share (experiment): EMSA
For orientation: Mobility shift assays separate free from complexed probe on a gel.

For data set [1], the target named is T1, BcAlkD (Bacillus cereus) (UniProt Q2PAD8).
T1 sequence: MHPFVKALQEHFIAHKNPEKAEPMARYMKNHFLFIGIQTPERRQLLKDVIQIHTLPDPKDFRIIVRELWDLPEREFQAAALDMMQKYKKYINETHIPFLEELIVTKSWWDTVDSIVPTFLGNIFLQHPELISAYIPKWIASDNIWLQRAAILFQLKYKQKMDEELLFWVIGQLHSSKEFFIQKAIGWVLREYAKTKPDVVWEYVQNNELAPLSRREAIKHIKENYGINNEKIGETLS
The note with it: EMSA: 100 pM 32P-DNA, 0-50 uM protein, 20 mM Tris-HCl pH 7.5, 100 mM NaCl, 5% glycerol, 2 mM DTT, 0.1 mM EDTA, 0.1 mg/mL BSA, 20 C, 30 min; 5% native gel.

For data set [2], the target named is T2, SmAlkD2 (Streptococcus mutans Clarke (ATCC 25175)) (UniProt A0A0M3KL00).
T2 sequence: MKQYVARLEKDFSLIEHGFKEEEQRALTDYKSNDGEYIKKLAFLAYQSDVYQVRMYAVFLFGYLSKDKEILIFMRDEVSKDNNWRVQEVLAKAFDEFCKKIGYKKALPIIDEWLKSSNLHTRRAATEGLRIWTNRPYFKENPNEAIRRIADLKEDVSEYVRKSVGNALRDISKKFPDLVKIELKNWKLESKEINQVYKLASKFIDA
The note with it: EMSA: 100 pM 32P-DNA, 0-50 uM protein, 20 mM Tris-HCl pH 7.5, 100 mM NaCl, 5% glycerol, 2 mM DTT, 0.1 mM EDTA, 0.1 mg/mL BSA, 20 C, 30 min, 5% native gel.

Data set [3] concerns the target T3, BcAlkD-K29A K29A (Bacillus cereus) (UniProt Q2PAD8).
T3 sequence: T1 sequence with K29A
The note with it: N13 of strand 1 = tetrahydrofuran (THF) abasic site mimetic; EMSA: 100 pM 32P-DNA, 0-50 uM protein, 20 mM Tris-HCl pH 7.5, 100 mM NaCl, 5% glycerol, 2 mM DTT, 0.1 mM EDTA, 0.1 mg/mL BSA, 20 C, 30 min; 5% native gel.

Turning to “GACCACTACACCGATTCCTTACAAC (double strand) [G•C-DNA 25-mer]”, the pKd is 4.72 in data set [1] and 4.17 in data set [2].

“GACCACTACACCGATTCCTTACAAC / GTTGTAAGGAATTGGTGTAGTGGTC [G•T-DNA 25-mer]” gave a negative logarithm of the Kd (pKd) in data set [2] (G13•T13 mismatch) of 4.28.

The sequence “GACCACTACACCNATTCCTTACAAC / GTTGTAAGGAATCGGTGTAGTGGTC [THF•C-DNA 25-mer]” returned a binding signal (fold lower affinity than WT) in data set [3] of over 10000. In data set [2] (N13 of strand 1 = tetrahydrofuran (THF) abasic site mimetic), this sequence gave a negative logarithm of the Kd (pKd) of 5.47.

What is called pKd is the Kd on a negative log10 scale, so that one unit is a factor of ten. A lower pKd goes with a high Kd.
